These are literature values, as cited in PMC8006918.

The target of data set [1] is Tenascin-C (Homo sapiens) (UniProt P24821).
Data set [2] shares this target. The source holds these as a separate data set.
Data set [3] has the same target. This is another data set of the same source.

Read-outs that look alike come from different tables or passages of the source.

Tenascin-C (Homo sapiens), sequence (P24821 23-2201): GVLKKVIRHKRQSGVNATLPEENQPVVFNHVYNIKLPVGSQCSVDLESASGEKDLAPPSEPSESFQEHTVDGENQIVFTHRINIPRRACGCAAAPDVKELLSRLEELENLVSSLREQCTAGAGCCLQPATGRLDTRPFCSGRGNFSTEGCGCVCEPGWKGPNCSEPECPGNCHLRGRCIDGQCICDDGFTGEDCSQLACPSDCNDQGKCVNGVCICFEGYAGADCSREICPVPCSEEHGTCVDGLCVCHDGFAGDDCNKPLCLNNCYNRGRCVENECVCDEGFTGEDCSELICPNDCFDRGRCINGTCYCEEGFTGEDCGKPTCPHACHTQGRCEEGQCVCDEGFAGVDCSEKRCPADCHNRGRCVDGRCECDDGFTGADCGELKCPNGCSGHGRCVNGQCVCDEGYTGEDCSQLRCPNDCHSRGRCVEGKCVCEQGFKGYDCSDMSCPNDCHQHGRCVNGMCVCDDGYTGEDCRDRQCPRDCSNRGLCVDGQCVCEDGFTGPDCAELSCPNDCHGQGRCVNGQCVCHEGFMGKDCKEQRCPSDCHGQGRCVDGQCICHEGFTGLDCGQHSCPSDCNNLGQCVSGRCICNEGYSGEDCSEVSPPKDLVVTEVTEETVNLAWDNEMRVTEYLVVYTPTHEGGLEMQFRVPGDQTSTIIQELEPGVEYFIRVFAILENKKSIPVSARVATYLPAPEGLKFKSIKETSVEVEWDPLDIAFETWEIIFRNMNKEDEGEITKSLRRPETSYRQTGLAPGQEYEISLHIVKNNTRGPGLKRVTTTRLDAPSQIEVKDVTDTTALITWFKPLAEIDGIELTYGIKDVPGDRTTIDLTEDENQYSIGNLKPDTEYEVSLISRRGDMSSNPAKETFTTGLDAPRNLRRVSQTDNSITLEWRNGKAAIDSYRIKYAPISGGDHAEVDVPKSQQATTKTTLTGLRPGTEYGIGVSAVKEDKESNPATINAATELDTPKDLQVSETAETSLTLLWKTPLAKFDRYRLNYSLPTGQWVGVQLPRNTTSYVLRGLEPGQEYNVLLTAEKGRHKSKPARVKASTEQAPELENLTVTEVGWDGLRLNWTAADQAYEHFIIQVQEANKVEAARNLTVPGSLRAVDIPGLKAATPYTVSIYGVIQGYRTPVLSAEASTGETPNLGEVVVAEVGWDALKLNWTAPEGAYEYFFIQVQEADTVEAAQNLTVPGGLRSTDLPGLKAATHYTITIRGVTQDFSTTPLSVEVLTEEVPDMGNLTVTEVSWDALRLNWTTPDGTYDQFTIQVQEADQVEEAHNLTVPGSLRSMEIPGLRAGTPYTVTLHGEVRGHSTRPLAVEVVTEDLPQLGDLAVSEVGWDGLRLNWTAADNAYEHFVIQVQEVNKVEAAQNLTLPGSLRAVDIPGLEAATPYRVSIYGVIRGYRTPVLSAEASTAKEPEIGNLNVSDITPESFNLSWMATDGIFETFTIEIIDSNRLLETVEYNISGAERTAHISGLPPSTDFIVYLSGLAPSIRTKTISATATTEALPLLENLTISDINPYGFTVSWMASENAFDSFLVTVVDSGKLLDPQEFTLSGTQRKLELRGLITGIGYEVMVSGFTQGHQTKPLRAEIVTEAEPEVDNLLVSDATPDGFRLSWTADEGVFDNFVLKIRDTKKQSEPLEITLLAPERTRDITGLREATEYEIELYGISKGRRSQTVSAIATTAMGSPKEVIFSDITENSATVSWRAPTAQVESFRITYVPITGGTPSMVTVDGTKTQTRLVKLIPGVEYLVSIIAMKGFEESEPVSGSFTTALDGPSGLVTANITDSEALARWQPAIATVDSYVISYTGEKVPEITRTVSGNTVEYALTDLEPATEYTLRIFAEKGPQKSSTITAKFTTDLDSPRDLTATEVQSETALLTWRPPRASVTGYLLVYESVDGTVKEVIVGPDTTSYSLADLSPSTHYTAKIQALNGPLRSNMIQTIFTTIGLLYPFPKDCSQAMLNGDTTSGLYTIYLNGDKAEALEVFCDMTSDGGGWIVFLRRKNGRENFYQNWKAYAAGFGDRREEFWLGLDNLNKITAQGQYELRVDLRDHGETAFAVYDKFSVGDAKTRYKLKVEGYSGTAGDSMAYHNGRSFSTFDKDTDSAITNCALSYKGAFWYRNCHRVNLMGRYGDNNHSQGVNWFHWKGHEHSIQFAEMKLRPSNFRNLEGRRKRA
Fibronectin FN III13, sequence (P02751 1904-1992): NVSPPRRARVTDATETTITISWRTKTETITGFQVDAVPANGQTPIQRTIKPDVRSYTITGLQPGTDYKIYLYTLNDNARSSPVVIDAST
CCL21, sequence (O00585 24-134): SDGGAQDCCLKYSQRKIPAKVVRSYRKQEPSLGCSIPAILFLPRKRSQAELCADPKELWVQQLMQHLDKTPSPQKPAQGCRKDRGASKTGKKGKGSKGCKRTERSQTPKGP
TGF-β1, sequence (P01137 279-390): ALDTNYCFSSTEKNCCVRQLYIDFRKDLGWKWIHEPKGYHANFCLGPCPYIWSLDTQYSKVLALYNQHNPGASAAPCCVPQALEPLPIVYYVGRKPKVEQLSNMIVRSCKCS

Consider “Fibronectin FN III13 (from UniProt P02751)”, for which the Kd in data set [1] is 128 nM.

In the case of CCL21 (from UniProt O00585), in data set [2], the Kd was 58 nM.

With TGF-β1 (from UniProt P01137), in data set [3], the Kd is 20.3 nM.
